The values that follow come from paper PMC7863910, “A novel stress-inducible CmtR-ESX3-Zn^2+ regulatory pathway essential for survival of Mycobacterium bovis under oxidative stress” (The Journal of Biological Chemistry, 2020).

The target of the test is T1, Zur (zinc uptake repressor), purified (UniProt P9WN85 1-130).
T1 sequence: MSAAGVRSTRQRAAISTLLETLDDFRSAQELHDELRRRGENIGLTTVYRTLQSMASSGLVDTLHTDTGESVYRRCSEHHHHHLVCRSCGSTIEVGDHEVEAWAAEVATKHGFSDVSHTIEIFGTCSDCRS
In words: SPR; Biacore 3000; […] (200 nM) […]; running buffer 10 mM HEPES pH 7.4, 150 mM NaCl, 50 mM EDTA, 0.005% surfactant P20. The conditions noted are these: both partners purified.

B1: CmtR, His-tagged, purified (natural protein)
chain: MLTCEMRESALARLGRALADPTRCRILVALLDGVCYPGQLAAHLGLTRSNVSNHLSCLRGCGLVVATYEGRQVRYALADSHLARALGELVQVVLAVDTDQPCVAERAASGEAVEMTGS
notes: also called His-tagged CmtR
As to B1, the binding result is “binds”.
